Measurements: patent US20230105029A1 (CHIA TAI TIANQING PHARMACEUTICAL GROUP, published 2023)
Where two headings read alike, the source gives them in different places.

T1: marmoset monkey IL4Rα-his protein (marmoset monkey)
T1 construct: Custom made by Sino biological; no cleavage site stated; also called cal-IL4Rα-his; Cal-IL4Rα
T1 chain: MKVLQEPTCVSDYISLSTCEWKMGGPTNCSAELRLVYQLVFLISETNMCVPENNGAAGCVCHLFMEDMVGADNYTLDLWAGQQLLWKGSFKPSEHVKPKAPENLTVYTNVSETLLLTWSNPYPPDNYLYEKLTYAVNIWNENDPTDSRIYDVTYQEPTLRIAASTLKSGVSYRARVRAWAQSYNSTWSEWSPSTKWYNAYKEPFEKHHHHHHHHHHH


Experiments:
[1] = target: T2, cynomolgus monkey IL4Rα-his protein (cynomolgus monkey, UniProt A0A2K5V580 33-239); assay: indirect ELISA, coated cyno IL4Rα-his
T2 construct: Bought protein; also called Cynomolgus IL4Rα; Cyno-IL4Rα-his; not shown: his tag

[2] = target: T3, recombinant human IL4Rα-his protein (in house made) (human, UniProt P24394 26-232, limits assumed); assay: SPR (Biacore), antibody captured, IL4Rα-his flowed
T3 construct: also called Human IL4Ra-his

[3] = target: T4, human IL4Rα expressed on 293F-IL4Rα cells (human, UniProt P24394 26-825); assay: flow cytometry on 293F-IL4Rα cells, blocked ligand biotin human IL4
T4 construct: whole, on cells; also called cell surface human IL4Rα

[4] = target: T4, human IL4Rα expressed on 293F-IL4Rα …; assay: flow cytometry on 293F-IL4Rα cells
[5] = target: T4, human IL4Rα expressed on 293F-IL4Rα …; assay: flow cytometry, blocks biotin-IL4 binding to 293F-IL4Rα cells
Experimental: Then, 1×10⁵ cells per well in 96 well-plates were incubated in 100 μL of the anti-IL4Rα antibodies or controls of various concentrations (starting at 80 nM with a 4-fold serial dilution) in FACS buffer for 40 minutes on ice. The plates were washed twice with FACS buffer, and added and incubated for 40 minutes at 4° C. in dark with 100 μl/well 1.67 nM biotin-labeled human IL4 protein (Sino biological inc., Cat #11846-HNAE). The plates were washed twice with FACS buffer, and then added and incubated for 40 minutes at 4° C. in dark with 100 μl/well R-Phycoerythrin Streptavidin (1:500 dilution in FACS buffer, Jackson Immunoresearch, Cat #016-110-084). Cells were washed twice and resuspended in FACS buffer. Fluorescence was measured using a Becton Dickinson FACS Canto II-HTS equipment. Data was analyzed using Graphpad Prism software and IC₅₀ values were reported.

[6] = target: T1, marmoset monkey IL4Rα-his protein; assay: indirect ELISA, coated cal-IL4Rα-his
[7] = target: T3, recombinant human IL4Rα-his protein (in …); assay: competitive ELISA, blocks biotin-IL4Rα-his binding to coated Benchmark (competitor)
Experimental: The ability of the anti-IL4Rα antibodies of the disclosure to block benchmark-human IL4Rα binding was measured in a competitive ELISA assay. Briefly, the benchmark was coated on 96-well micro plates at 2 μg/mL in PBS, 100 μl per well, and incubated overnight at 4° C. The next day, plates were washed with wash buffer (PBS+0.05% w/v Tween-20, PBST), and blocked with 5% w/v non-fatty milk in PBST for 2 hours at 37° C. tiring plate blocking, the anti-IL4Rα antibodies of the disclosure or controls were diluted with biotin labeled human IL4Rα-his proteins (prepared in-house with SEQ ID NO: 57, 0.55 nM in 2.5% w/v non-fatty milk in PBST), starting at 100 nM with a 4-fold serial dilution, and incubated at 25° C. for 40 minutes. After plate washing, the antibody/IL4Rα-his mixtures were added to benchmark coated plates, 100 μl per well. After incubation at 37° C. for 40 minutes, plates were washed using wash buffer. Then the plates were added and incubated with 100 μl/well streptavidin conjugated HRP for 40 minutes at 37° C. to detect biotin-labeled human IL4Rα-his bound to plates. Plates were washed again using wash buffer. Finally, TMB was added and the reaction was stopped using 1M H₂SO₄, and the absorbance was read at 450 nm. Data was analyzed using Graphpad Prism software and IC₅₀ values were reported.

[8] = target: human IL4Rα expressed on HEK293T-IL4Rα-STAT6-STAT6LUC-LB2 cells (human, UniProt P24394 26-825); assay: cell-based or functional assay
[9] = target: T3, recombinant human IL4Rα-his protein (in …); assay: SPR (Biacore), antibody captured, IL4Rα-his flowed; remark: listed apart in the source
[10] = target: T3, recombinant human IL4Rα-his protein (in …); assay: competitive ELISA, blocks biotin-IL4 binding to coated IL4Rα-his
Experimental: Serially diluted anti-IL4Rα antibodies or the controls (starting at 80 nM with a 4-fold serial dilution) in 2.5% w/v non-fatty milk in PBST, 100 μl per well, were added to the IL4Rα bound plates, and incubated with the human IL4Rα-his proteins at 37° C. for 40 minutes. Plates were washed 4 times using wash buffer, and then added and incubated for 40 minutes at 37° C. with 100 μl/well of 0.56 nM biotin-labeled human IL4 protein (Sino biological inc., Cat #11846-HNAE). Plates were washed again using wash buffer. Thereafter, the plates were added with 100 μl/well of streptavidin conjugated HRP (1:10000 dilution in PBST buffer, Jackson Immunoresearch, Cat #016-030-084) and incubated for 40 minutes at 37° C. Plates were washed again using wash buffer. Finally, TMB was added and the reaction was stopped using 1M H₂SO₄, and the absorbance was read at 450 nm. Data was analyzed using Graphpad Prism software and IC₅₀ values were reported.

[11] = target: T1, marmoset monkey IL4Rα-his protein; assay: indirect ELISA on coated cal-IL4Rα-his
[12] = target: T3, recombinant human IL4Rα-his protein (in …); assay: competitive ELISA: coated human IL4Rα-his, blocked ligand biotin human IL4
[13] = target: T3, recombinant human IL4Rα-his protein (in …); assay: competitive ELISA: antibody mixed with biotin human IL4Rα-his, competitor plate-coated Benchmark
[14] = target: T2, cynomolgus monkey IL4Rα-his protein; assay: indirect ELISA on coated cynomolgus IL4Rα-his
[15] = target: T4, human IL4Rα expressed on 293F-IL4Rα …; assay: flow cytometry, 293F-IL4Rα cells
Experimental: Then, 2×10⁵ cells per well in 96 well-plates were incubated in 100 μL of the anti-IL4Rα antibodies or controls of various concentrations (starting at 80 nM with a 4-fold serial dilution) in FACS buffer for 40 minutes on ice. […] Following an incubation of 40 minutes at 4° C. in dark, cells were washed three times and resuspended in FACS buffer. Fluorescence was measured using a Becton Dickinson FACS Canto II-HTS equipment. Data was analyzed using Graphpad Prism software and EC₅₀ values were reported.

[16] = target: T3, recombinant human IL4Rα-his protein (in …); assay: capture ELISA, biotin-IL4Rα-his
[17] = target: T3, recombinant human IL4Rα-his protein (in …); assay: capture ELISA: antibody captured on anti-IgG Fc plate, biotin human IL4Rα-his detected

Row | EC50 [1] [nM] | Kd [2] [nM] | IC50 [3] [nM] | EC50 [4] [nM] | IC50 [5] [nM] | EC50 [6] [nM] | IC50 [7] [nM] | Inhibition on IL4 induced STAT6 phosphorylation (IC50, nM) [8] [nM] | Inhibition on IL13 induced STAT6 phosphorylation (IC50, nM) [8] [nM] | Dissociation % [9] [%] | End (RU) [9] [RU] | Kd [9] [nM] | Start (RU) [9] [RU] | koff [9] [s⁻¹] | kon [9] [M⁻¹ s⁻¹] | IC50 [10] [nM] | EC50 [11] [nM] | IC50 [12] [nM] | IC50 [13] [nM] | EC50 [14] [nM] | Binder | other results
1 | 0.68 | 0.642 | 0.578 | 0.39 | 0.58 | 0.55 | 0.17 | 0.64 | 0.73 | 0.8 | 50.5 | < 0.0654 | 50.1 | < 1e-05 | 153000 | 2.17 | 0.555 | 2.17 | 0.171 | 0.677 | huC2C1A1A1-V14 (antibody, human IgG4 S228P, kappa, V domains shown, Humanized, human IgG4/kappa) VH: EVQLVESGGGLVQPGGSLRLSCAASGFTFSTYGMSWVRQAPGKGLVWVATINSNGGSTSYPDSVKGRFTISRDNAKNTLYLQMNSLRAEDTAVYYCARFFRFRNAMDYWGQGTLVTVSS VL: DIQMTQSPSSLSASVGQRVTITCRTSENIYSYLAWYQQKQGKPPRFLIYNAKTLAEGVPSRFSGSGSGTEFTLTITSLQAEDFGVYYCQHYYGPPTWTFGPGTKLEIKR | EC50 [15]: 0.39 nM; EC50 [16]: 0.06 nM; EC50 [17]: 0.0616 nM
2 | 0.52 | 0.447 | 0.502 | 0.311 | 0.5 | 0.41 | 0.16 | 0.61 | 0.6 | 0.29 | 69.2 | < 0.0435 | 69 | < 1e-05 | 230000 | 2.03 | 0.412 | 2.03 | 0.159 | 0.517 | huC2C1A1A1-V15 (antibody, human IgG4, V domains shown, Humanized, human IgG4/kappa) VH: EVQLVESGGGLVQPGGSLRLSCAASGFTFSTYGMSWVRQAPGKGLVWVATINSNGGSTSYPDSVKGRFTISRDNAKNTLYLQMNSLRAEDTAVYYCARFFRFRNAMDYWGQGTLVTVSS VL: DIQMTQSPSSLSASVGDRVTITCRTSENIYSYLAWYQQKPGKAPKFLVYNAKTLAEGVPSRFSGSGSGTDFTLTISSLQPEDFATYYCQHYYGPPTWTFGQGTKVEIKR | EC50 [15]: 0.31 nM; EC50 [16]: 0.05 nM; EC50 [17]: 0.0474 nM
